Reference: patent US10426871B2, “Nanostructure surface coated medical implants and methods of using the same” (The Regents of the University of California, priority 2007, dated 2019)

Assays:
[1] = Release of proteins from nanotubes into PBS (Micro-BCA); assay type: physicochemical; parameters: time point at which all the protein is released from the nanotubes: unit: min; settings: for time point at which all the protein is released from the nanotubes: PBS, room temperature, 70 rpm
Procedure: In order to release the proteins from the nanotubes, the surfaces were immersed in 500 μl of PBS in a 24-well plate at room temperature with orbital shaking at 70 rpm. 200 μl of samples were taken after specific intervals of time to determine the release kinetics. Samples were collected periodically for up to 120 minutes. The solution was replaced with 200 μl of fresh PBS every time the samples were taken. The samples were analyzed for protein content using a commercially available Micro-BCA assay kit and the concentration was adjusted for dilutions due to replacement of fresh PBS.

[2] = XPS of protein-loaded and protein-adsorbed nanotube surfaces; assay type: physicochemical; settings: Adsorbed (control)
Procedure: To evaluate the differences in amounts of protein in nanotubes, X-ray photoelectron spectroscopy (XPS) analysis was carried out. XPS is a surface sensitive technique which can detect changes in surface composition for up to 2-20 atomic layers, depending on the material. Since the nanotubes are approximately 400 nm long, XPS can be used to verify the differences in surface concentrations due to different amounts of BSA and LYS loaded. The loaded nanotube surfaces along with adsorbed surfaces were mounted on an XPS stage. Three spots per sample were analyzed. The analysis was conducted on a SSI S-Probe Monochromatized XPS Spectrometer which uses an Al-Kα-X-ray source (1486.6 eV) with an Omni Focus III small area lens and multichannel detector. A concentric hemispherical analyzer (CHA) was operated in the constant analyzer transmission mode to measure the binding energies of emitted photoelectrons. The binding energy scale was calibrated by the Au4f7/2 peak at 83.9 eV, and the linearity was verified by the Cu3p1/2 and Cu2p3/2 peaks at 76.5 and 932.5 eV respectively. Survey spectra were collected from 0 to 1100 eV with pass energy of 160 eV, and high-resolution C1s spectra were collected for each element detected with pass energy of 10 eV. Survey and high resolution spectra were collected at a 65° take off angle, defined as the angle spanned by the electron path to the analyzer and the sample surface. All spectra were referenced by setting the hydrocarbon C1s peak to 285.0 eV to compensate for residual charging effects. Data for percent atomic composition and atomic ratios were calculated using the manufacturer supplied sensitivity factor.
To evaluate the differences in amounts of protein in nanotubes, X-ray photoelectron spectroscopy (XPS) analysis was carried out. […] LYS and BSA adsorbed surfaces were used as controls. There is a steady increase in N/C ratios with increasing amounts of protein loaded into the nanotubes. A more precise way to characterize protein on the surface is to determine the fraction of C—N and N—C═O peaks in overall C1s peak. The C—N and N—C═O peaks are characteristic of proteins which are at a shift of 0.8 eV and 1.8 eV respectively from the C—C peak (285 eV). Thus, high resolution C1s scans were taken and the peak fit analysis software provided with the XPS instrument was used to determine % of C—N and N—C═O in the overall C1s peak (Table 3). A convolution of Gaussian components was assumed for all the peaks. There is an increase in the intensity for the […], C—N and N—C═O peaks with increasing amounts of proteins loaded into the nanotubes.

[3] = cited from earlier work

| Substance | time point at which all the protein is released from the nanotubes ([1]; 200 μg loaded) | time point at which all the protein is released from the nanotubes ([1]; 400 μg loaded) | time point at which all the protein is released from the nanotubes ([1]; 800 μg loaded) | C—C fraction of overall C1s peak (high resolution XPS) [2] | C—N fraction of overall C1s peak (high resolution XPS) [2] | N/C ratio (XPS survey scan) [2] | N—C═O fraction of overall C1s peak (high resolution XPS) [2] | Net charge @ pH 7.0 [3] | release from the nanotubes compared to that of BSA (in words) [1] |
| --- | --- | --- | --- | --- | --- | --- | --- | --- | --- |
| Bovine Serum Albumin: model protein, larger molecule with net negative charge, loaded into titania nanotubes | 25 | 50 | 65 | 0.81 | 0.11 | 0.123 | 0.08 | −18 |  |
| Lysozyme: model protein, smaller in size with net positive charge, loaded into titania nanotubes | 36 | 85 | 110 | 0.73 | 0.22 | 0.215 | 0.03 | +7 | much slower |
